Data as given in patent US20250340641A1 (KYMAB, published 2025).

T1: human ICOS expressed on the surface of cells (human, UniProt Q9Y6W8 21-199)
T1 construct: also called hICOS; Human ICOS CHO
T1 sequence: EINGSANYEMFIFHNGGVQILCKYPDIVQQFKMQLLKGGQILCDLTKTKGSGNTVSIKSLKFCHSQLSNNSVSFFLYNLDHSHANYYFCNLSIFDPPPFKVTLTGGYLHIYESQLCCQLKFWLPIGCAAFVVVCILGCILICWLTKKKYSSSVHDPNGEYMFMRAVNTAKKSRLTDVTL

T2: mouse ICOS expressed on the surface of CHO-S cells (mouse, UniProt Q9WVS0 21-200)
T2 construct: whole, on cells; also called mICOS; Mouse ICOS CHO
T2 sequence (looked up): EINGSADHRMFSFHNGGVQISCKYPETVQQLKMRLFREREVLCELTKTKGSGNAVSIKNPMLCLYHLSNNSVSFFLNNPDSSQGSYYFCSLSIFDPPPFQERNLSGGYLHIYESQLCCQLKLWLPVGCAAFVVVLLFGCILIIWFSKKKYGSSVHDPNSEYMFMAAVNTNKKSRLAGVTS


Key:
[1] = biological target: T1, human ICOS expressed on the surface of …; experiment: flow cytometry on CHO-S cells, purified IgG1
[2] = biological target: T2, mouse ICOS expressed on the surface of …; experiment: flow cytometry on CHO-S cells, purified IgG1

Binder	fold above the average of geomean of the negative control [1] [fold]	fold above the average of geomean of the negative control [2] [fold]
CL-74570 (antibody, V domains shown) VH: EVQLVESGGGVIRPGGSLRLSCAASGFTFDDYGMSWVRQAPGKGLEWVSGINWIGDNTDYADSVKGRFTISRDNAKNSLYLQMNSLRAEDTALYYCARDYFGSGSYYNVPF VL: not shown	> 10	> 10
CL-61091 (antibody, V domains shown) VH: QVQLMQSGTEVKKPGASVKVSCKTSGYTFTTYGITWVRQAPGQGLEWMGWISAYSGDTDYAQKFQGRVTVTTDTSTNTAYMELRSLKSDDTAVYYCARSSGWPHHYGMDVWGQGTTVTVSS VL: DIVMTQSPLSLPVTPGEPASISCRSSQSLLHSNGFNYFDWYLQKPGQSPQLLIFLVSNRASGVPDRFSGSGSGTDFTLKISRVEAEDVGIYYCMQALQTPLTFGGGTKVEIK	> 10	> 10
